For the experiment, the system named is allergic airway inflammation (murine allergy model). Nature of the experiment: Therapeutic treatment of OVA/Alum-induced allergic airway inflammation. The class given is in vivo, mice. The settings on record: treated after exposure to OVA. How it is done:
To test the therapeutic effect of OVA encapsulated in PLG particles on airway inflammation, mice were treated intraperitoneally with OVA/Alum at a dose of 10 μg/mouse on day 0 and day 14. The mice were intravenously administered with OVA-PLG on days 28, and 42. Between days 56-58, the mice were treated three times with aerosolized OVA.
The animals were treated as described above except that on days 28 and 42, the mice were treated with either OVA encapsulated in PLG particles, or OVA coupled to PLG particles.
In the allergy model, coupled nanoparticles have a propensity to cause anaphylaxis and are not an effective therapy. […] Animals were exposed to OVA as an allergen, and were then treated with either a sham-PLG or TIMP particle, a PLG or TIMP particle with OVA, or no treatment.

B1: OVA-PLG surface coupled particles: PLGA particle with OVA coupled to the outside of the particle (conjugate, UniProt P01012 2-386, looked up)
Ovalbumin: GSIGAASMEFCFDVFKELKVHHANENIFYCPIAIMSALAMVYLGAKDSTRTQINKVVRFDKLPGFGDSIEAQCGTSVNVHSSLRDILNQITKPNDVYSFSLASRLYAEERYPILPEYLQCVKELYRGGLEPINFQTAADQARELINSWVESQTNGIIRNVLQPSSVDSQTAMVLVNAIVFKGLWEKAFKDEDTQAMPFRVTEQESKPVQMMYQIGLFRVASMASEKMKILELPFASGTMSMLVLLPDEVSGLEQLESIINFEKLTEWTSSNVMEERKIKVYLPRMKMEEKYNLTSVLMAMGITDVFSSSANLSGISSAESLKISQAVHAAHAEINEAGREVVGSAEAGVDAASVSEEFRADHPFLFCIKHIATNAVLFFGRCVSP
modifications: coupled to PLG particles
For the molecule B1, the TH2 response result was “fail to reduce the TH2 response”.

These data come from patent US12533403B2, “Peptide conjugated particles” (NORTHWESTERN UNIVERSITY, priority 2013, dated 2026).
